Data published in article PMC11618752 (2024).

Target: XPO1 protein, recombinant (UniProt O14980 1-1071)
Experiment: ITC

Sequence of XPO1 protein, recombinant (O14980 whole entry): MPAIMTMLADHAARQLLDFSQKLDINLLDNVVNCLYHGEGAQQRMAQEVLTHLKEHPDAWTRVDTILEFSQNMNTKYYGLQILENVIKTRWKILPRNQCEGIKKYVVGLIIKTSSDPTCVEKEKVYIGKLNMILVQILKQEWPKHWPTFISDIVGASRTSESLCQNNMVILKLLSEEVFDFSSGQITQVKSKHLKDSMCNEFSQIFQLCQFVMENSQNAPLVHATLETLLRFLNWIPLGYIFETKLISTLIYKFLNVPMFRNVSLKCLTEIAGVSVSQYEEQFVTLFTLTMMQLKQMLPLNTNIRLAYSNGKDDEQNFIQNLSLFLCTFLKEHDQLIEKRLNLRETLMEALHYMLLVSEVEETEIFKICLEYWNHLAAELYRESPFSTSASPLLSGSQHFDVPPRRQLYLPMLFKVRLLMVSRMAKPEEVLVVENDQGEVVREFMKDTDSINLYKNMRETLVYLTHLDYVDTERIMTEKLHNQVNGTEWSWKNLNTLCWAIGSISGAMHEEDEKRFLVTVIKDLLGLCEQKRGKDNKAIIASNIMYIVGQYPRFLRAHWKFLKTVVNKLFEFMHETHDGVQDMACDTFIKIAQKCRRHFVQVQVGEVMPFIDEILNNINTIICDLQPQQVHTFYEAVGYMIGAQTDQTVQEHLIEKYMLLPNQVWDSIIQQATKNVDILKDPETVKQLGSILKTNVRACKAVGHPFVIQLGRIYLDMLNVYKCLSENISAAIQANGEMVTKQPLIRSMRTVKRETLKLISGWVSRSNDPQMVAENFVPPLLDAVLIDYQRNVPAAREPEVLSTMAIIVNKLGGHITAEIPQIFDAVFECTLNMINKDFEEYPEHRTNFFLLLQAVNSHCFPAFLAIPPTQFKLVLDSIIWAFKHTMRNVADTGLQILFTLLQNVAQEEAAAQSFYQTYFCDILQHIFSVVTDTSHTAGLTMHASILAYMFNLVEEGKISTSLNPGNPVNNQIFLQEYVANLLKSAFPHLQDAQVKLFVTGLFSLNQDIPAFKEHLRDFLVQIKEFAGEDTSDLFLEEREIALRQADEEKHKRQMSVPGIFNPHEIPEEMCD

- Kd: 45 µM
B1: NES peptide (173–182 aa of TIRR) (peptide)
peptide: LLFALKVLNM
